According to the supplement of paper PMC9170038:

Test system: MS2 coat protein
Experiment: apparent KD of MS2 coat protein; designed switch direction (-1 OFF switch, 1 ON switch): 1; higher = weaker reporter binding
Procedure, shortened: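 Stalled E. coli RNA polymerase transcribed designed RNA switches on Illumina chips, which were then titrated with SNAP-549-labelled MS2 coat protein, doubling from 0.7 or 1.5 nM to 3 µM. Steps lasted from 0.8–1.5 h at the lowest concentration to 10–20 min at the highest. The apparent KD is each design's median over clusters of curve-fitted normalised fluorescence.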

[1] = Eterna round: R95, input ligand: FMN 200 uM
[2] = Eterna round: R95, input ligand: microRNA oligo, concentration not stated
[3] = Eterna round: R95, input ligand: none
[4] = input ligand: microRNA oligo, concentration not stated

Row | Sequence | apparent KD of MS2 coat protein [1] [nM] | apparent KD of MS2 coat protein [2] [nM] | apparent KD of MS2 coat protein [3] [nM] | apparent KD of MS2 coat protein (input ligand: FMN 200 uM) [nM] | apparent KD of MS2 coat protein [4] [nM] | apparent KD of MS2 coat protein (input ligand: none) [nM]
1 | GGCAGGUGCAGGCUUGCUUGCACCUGGAGACAUGAGGAUCACCCAUGUUUGGGACAAGCUUUGCUCUUCGUCUUUUC [JL ViennaUCT Isusreraar mod 6] (puzzle: Sensor for hsa-mir-208a) | 74.1 | 105 | 107 | – | – | –
2 | CUAUCUACAGGUGUCAUUGCUCGUCUUAUACAUGAGGAUCACCCAUGUUAUAGCCCGGUGCUUGCGCUGGGCUGAUU [JL ViennaUCT Tearor mod 5] (puzzle: Sensor for hsa-mir-208a) | 114 | 15.5 | 99.9 | – | – | –
3 | UCUUGGUUUUUGCUCGUUUUUUGUGUUGAACAUGAGGAUCACCCAUGUAUUGUACGGUCCAAUUUGGUAAUGGUCCG [JMF 29] (puzzle: Sensor for hsa-mir-208a) | 25.2 | 15.6 | 26.8 | – | – | –
4 | AGAUAUCCACGACAUGAGGAUCACCCAUGUUGCUACGACAUGGAGGAUAUUCACGAUACACCUGUGAAGAAGGCUAAGGAUAUU [Eternabot solution 16] (Eterna round: R96, puzzle: Same State NG 3) | – | – | – | 631 | 508 | 776
5 | GAGGGACAGACCAACAUGAGGAUCACCCAUGUCCUCGGAGGUCAGGAUAUCCGGAGGUAGCCGAAGGAGAAGGGACGGUGAACC [AK SSNG3-V2-30.1] (Eterna round: R96, puzzle: Same State NG 3) | – | – | – | 322 | 136 | 197
6 | GAUUCACAUGAGGAUCACCCAUGUCGUUAUAUGGGAGGAUAUACGUGGACCGUAGUCCGCGUAGAAGGCCUAAUUG [JL-ss1-3.25 janelle mod] (puzzle: Same State 1) | – | 303 | – | – | – | –
7 | AUUUUUAAUGCAGGAUAUGAUUAACAUGAGGAUCACCCAUGUGGUGUUGUGAGUAAGGAGAGUGAUCAGAAGGGCAUUUUUUUU [JMF's solution 30] (Eterna round: R96, puzzle: Same State NG 2) | – | – | – | 726 | 354 | 456
8 | AUUAUACAUGAGGAUCACCCAUGUAAUUAAUCUAGUAAGAUCUAGGAUAUCAGCUCGAUUAGAGCUGAGAAGGAGAUCACAUGU [SSNG3/20-D2] (Eterna round: R96, puzzle: Same State NG 3) | – | – | – | – | 42.9 | –
9 | GACCGCGAGGAAGGAUAUGGAGCCUUAUUGGCUCCAGAAGGUCCAUAAAGGACAUGAGGAUCACCCAUGUGGGCUGAAGCGGUC [Fiskers NG1ss - 9] (Eterna round: R96, puzzle: Same State NG 1) | – | – | – | 22 | 25.8 | 35.1
10 | AGGCUCAGACUAGGAUAUACGUGGUCACAUGAGGAUCACCCAUGUCUCGAGCUUCGGCUCGAGGCGUAGAAGGAGUCUGAGCCA [SSNG2/6-D1] (Eterna round: R96, puzzle: Same State NG 2) | – | – | – | 119 | 260 | 371
11 | AAGAUGCUCGUAGGAUAUUGGAAAGGAAGUGUACAAGAAGGACGGUGUCACAUGAGGAUCACCCAUGUUACAGUCUAAGGACUA [PowerStrip SSNG 1.16] (Eterna round: R96, puzzle: Same State NG 1) | – | – | – | 21.5 | 13.2 | 20.3
12 | GUGGUGAAUUAAGGAUAUCGAGUCUAGAUGUUAAACAUGAGGAUCACCCAUGUGGGUUGCGGUGUCGAGAAGGUGAUUUACGGG [salish99_SSNG2_r04_509] (Eterna round: R96, puzzle: Same State NG 2) | – | – | – | 82.2 | 79.6 | 104
13 | UUGAACAAUUAAGGAUAUCGAGUACAUAUGUUAAACAUGAGGAUCACCCAUGUGGGUUGCGGUAUCGAGAAGGUAAAUUAGAAG [Mat - Same State NG 2 - JL mod - D57] (Eterna round: R96, puzzle: Same State NG 2) | – | – | – | 22.8 | 25.3 | 34
14 | AUAAAACAUGAGGAUCACCCAUGUCAACAAAUUCGAGGAUAUGGGCAAAUAAAAUAAGAACCAGAAGGCGAAUAAU [salish99_ss1_r3_038] (puzzle: Same State 1) | 18.1 | 104 | 86.1 | – | – | –
15 | GGUCCAGCCUGAGCUGGACAAAAGCAUGUACAUGAGGAUCACCCAUGUUCAUGUACAAGCUUUUUGCUCGUCUUAAA [salish99_208a_r3_035] (puzzle: Sensor for hsa-mir-208a) | 427 | 14.7 | 633 | – | – | –
16 | UUUAGUUGCGGGCAGGAUAUGUAUUAAAAUACAUGAGGAUCACCCAUGUGCGGGUAUAACACCCGACAGAAGGGCCAAUCGCAAC [Laonerce - 6] (puzzle: Same State 2) | 22.2 | 142 | 240 | – | – | –

Row | Sequence | apparent KD of MS2 coat protein [1] [nM] | apparent KD of MS2 coat protein [2] [nM] | apparent KD of MS2 coat protein [3] [nM] | apparent KD of MS2 coat protein (input ligand: FMN 200 uM) [nM] | apparent KD of MS2 coat protein [4] [nM] | apparent KD of MS2 coat protein (input ligand: none) [nM]
17 | GCUAGAAUUAAAGCCAACAUGAGGAUCACCCAUGUAUGUUGGUAGGAUAUCGUUUGCAAAGCAAACGAGAAGGGCUAAUCUAGC [Mat - Same State NG 3 - JL Mod - D64] (Eterna round: R96, puzzle: Same State NG 3) | – | – | – | 87 | 48.2 | 80.2
18 | GCGGAAUGGUGUGACAUGAGGAUCACCCAUGUAACCUCAUGUAAGGAUAUCGGGAAGAAGAAAACCGAGAAGGUACGGUGACGC [AK SSNG3-V2-28] (Eterna round: R96, puzzle: Same State NG 3) | – | – | – | 197 | 145 | 165
19 | AAUAAGUUCAGCUCGUCUUGCGCCGACUGACAUGAGGAUCACCCAUGUGGAUUCCAAGAGAUCCAUUGGCGUGUUUC [Erisdian] (puzzle: Sensor for hsa-mir-208a) | 37.9 | 87.6 | 79 | – | – | –
20 | ACUUAGUACAAUUUAGAUCUACAUGAGGAUCACCCAUGUACUGAGGAUAUCAGCUCGAAUAGAGCUGAGAAGGCAGAAGUACUU [SSNG3/8-A1] (Eterna round: R96, puzzle: Same State NG 3) | – | – | – | – | 192 | –
21 | GAGUAGUUGGGAGGAUAUCGAUUGUUAUAGAAUCGAGAAGGUUCUAACAUGAGGAUCACCCAUGUAGGACUAUUCCUGUGUAUC [Parity 74 - Jieux - Same State NG 1] (Eterna round: R96, puzzle: Same State NG 1) | – | – | – | – | 37.3 | –
22 | UGCUUCGUGUAAGGAUAUGCAGCCGUUUCGGCUGCAGAAGGUACUAUAAUACAUGAGGAUCACCCAUGUCUCUCGCUUUGCGGG [salish99_SSng1_r04_304] (Eterna round: R96, puzzle: Same State NG 1) | – | – | – | – | 43.4 | –
23 | CCAAUGUACAAUUUAGAUCUACAUGAGGAUCACCCAUGUACAGAGGAUAUCAGCUCGUUUAGAGCUGAGAAGGCUGAAUUAAUU [SSNG3/3-A3] (Eterna round: R96, puzzle: Same State NG 3) | – | – | – | 111 | 139 | 327
24 | AUAAACAGGCUAGGAUAUCCGGAAACUACAGGGCACGACCCUGUGGACAUGAGGAUCACCCAUGUGGAGAAGGAGCCACAUGAA [Edlatibi] (Eterna round: R96, puzzle: Same State NG 2) | – | – | – | 15.1 | 108 | 152
25 | GCGGAACGGUGUGACAUGAGGAUCACCCAUGUAACCUCAUGUAAGGAUAUCGGGAAGAAGAAAACCGAGAAGGUACGGUGACGC [AK SSNG3-V2-29] (Eterna round: R96, puzzle: Same State NG 3) | – | – | – | 399 | 152 | 706
26 | GUCGGUCUGUCGUGCUGAGGUGAUAGUUAACAUGAGGAUCACCCAUGUUGCUGUCGGGUCGUUGGGAGUUUUCUUCG [Modxample 118 - Jieux - Sensor for bsa-mir-208a] (Eterna round: R96, puzzle: Sensor for hsa-mir-208a) | – | – | – | 19.1 | 15.4 | 22.5
27 | CCGAUGCUUAUAAACAUGAGGAUCACCCAUGUGAGGACACAUGAGGAUAUGCAGGUCAAAGACUUGCAGAAGGCAUAGCGUCGG [JL SSNG3 3.89] (Eterna round: R96, puzzle: Same State NG 3) | – | – | – | 40.7 | 158 | 305
28 | AUAAAACAUGAGGAUCACCCAUGUCAACAAAGUCGAGGAUAUGGGCAAAUAAAAUAAGAACCAGAAGGUGAAUAAU [salish99_ss1_r3_032] (puzzle: Same State 1) | 131 | 31.5 | 146 | – | – | –
29 | UUAAUAAUGAUAGGAUAUACAUGAGGAAUUCUCGUAGAAGGAUCAUGACAUGAGGAUCACCCAUGUAACGCUCGAAAGAGCGUA [Mat - Same State NG 1 - JL mod - D39] (Eterna round: R96, puzzle: Same State NG 1) | – | – | – | 513 | 394 | 662
30 | AUUAUACAUGAGGAUCACCCAUGUAAUUAAUUAAUUAAGAUCAAGGAUAUCAGCUCGAUUAGAGCUGAGAAGGUGAUCACAUGU [SSNG3/20-B2] (Eterna round: R96, puzzle: Same State NG 3) | – | – | – | – | 170 | –
31 | AGUCCAGCCUGAGCUGGACAAAAGCAUGUACAUGAGGAUCACCCAUGUCAUGUACAAGCUUUUUGCAAAUCUUAAUA [Mat - hsa-mir-208a - Mod of JL - D34] (Eterna round: R96, puzzle: Sensor for hsa-mir-208a) | – | – | – | 999 | 14.6 | 1180
